Measured values from patent US20110008766A1 (AbbVie / Abbott, published 2011).

How the values were obtained:
[1] = molecular target: T1, neutrophil gelatinase associated lipocalin (NGAL) (UniProt P80188 21-198); assay: FRET quenching titration in solution; inner domain (NGAL 1-2322-455); inner domain (NGAL 1-2322-455)
T1 construct: also called recombinant NGAL
Protocol: (§1) Briefly, the dissociation constants for the outer variable binding domain and the inner variable binding domain of a given DVD-Ig and its corresponding antigen were measured in direct binding experiments. […] After 30 minutes of incubation, all samples were measured on an SLM 8100 photon counting spectrofluorimeter. Samples were excited at 480 nm, and the emission was collected through a 530 nm (30 nm bandwidth) interference filter (Chroma Technology Corp., Rockingham, Vt.). All binding measurements were performed in 10 mM HEPES buffer, pH 7.4, containing 0.15 M NaCl, 3 mM EDTA, and 0.005% surfactant P20.
(§2) where Ligandₜₒₜₐₗ and ABSₜₒₜₐₗ are the -antigen concentrations and the total DVD-Ig binding sites for that antigen, respectively, and Fbound is the fraction of bound antigen. The binding data were fitted with a simple binding model to obtain the equilibrium dissociation constant (KD) according to equation [2]: […]

[2] = molecular target: T2, interleukin 18 (IL-18) (UniProt Q14116 37-193); assay: FRET quenching titration in solution; outer domain (IL-18 1-4091); outer domain (IL-18 1-4091)
T2 construct: ALEXA Fluor 488-labelled in the FRET assay
Protocol: as §1, §2

[3] = molecular target: T1, neutrophil gelatinase associated …; assay: FRET quenching titration in solution; one value printed for outer (2322) and inner (903) domain
Protocol: as §1, §2

[4] = molecular target: T3, brain natriuretic peptide (BNP) (UniProt P16860 103-134); assay: FRET quenching titration in solution; ALEXA 488-antigen, BHQ-labelled binder
T3 construct: ALEXA Fluor 488-labelled in the FRET assay
Protocol: as §1, §2

[5] = molecular target: T1, neutrophil gelatinase associated …; assay: FRET quenching titration in solution; one value given for outer and inner domain
Protocol: as §1, §2

[6] = molecular target: T1, neutrophil gelatinase associated …; assay: FRET quenching titration in solution; ALEXA 488-antigen, BHQ-labelled binder
Protocol: as §1, §2

[7] = molecular target: T3, brain natriuretic peptide (BNP); assay: FRET quenching titration in solution; one value given for outer and inner domain
Protocol: as §1, §2

T1 sequence (P80188 21-198 limits assumed): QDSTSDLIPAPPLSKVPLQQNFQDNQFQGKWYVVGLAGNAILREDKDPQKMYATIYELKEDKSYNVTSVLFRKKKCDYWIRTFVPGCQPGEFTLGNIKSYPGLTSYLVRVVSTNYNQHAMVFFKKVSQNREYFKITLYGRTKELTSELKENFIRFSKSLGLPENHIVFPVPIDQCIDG

B1: DVD731 (bispecific antibody)
VH: QVQLQQPGSELVRPGASVKLSCKASGYTFTSYWMHWVKQRPGQGLEWIGNIYPGTVNTNYDEKFKNKATLTVDTSSSTAYMLLSSLTSEDSAVYYCTRDYYGGGLNYWGQGTTLTVSSASTKGPSVFPLAPEVQLVESGGGLVQPGGSLKLSCAASGFTFNNYYMSWVRQTPERRLEWVAYISSSGGSTYYSDSVRGRFTISRDTARNTLYLQMTSLKSEDTAMYYCARHFGDYSYFDYWGQGTTLTVSS
VL: SIVMTQTPKFLLVSAGDRVTITCKASQSVSNDVAWFQQKPGQSPKLLIYYASNRYAGVPDRFTGSGFGTDFTFTISTVQAEDLAVYFCHQDYSSPRTFGGGTKLEIKRTVAAPSVFIFPPDIQMTQSPASLSASVGETVTITCRASENFYSYLAWYQQKQGKSPQLLVYNAKTLAEGVPSRFSGSGSGTQFSLKINSLQPEDFGTYYCQHHYDIPLTFGAGTKLELKR
notes: also called DVD731 (IL18-2322-LL)
Kd [1]: 0.08 nM | Kd [2]: 0.9 nM

B2: DVD723 (bispecific antibody)
VH: EVQLVESGGGLVQPGGSLKLSCAASGFTFNNYYMSWVRQTPERRLEWVAYISSSGGSTYYSDSVRGRFTISRDTARNTLYLQMTSLKSEDTAMYYCARHFGDYSYFDYWGQGTTLTVSSASTKGPSVFPLAPKIQLVQSGPELKKPGETVKISCKASGYTFTNYGMNWVKQAPGKGLKWMGWININTGEPTYAEEFKGRFAFSLETSATTAFLQINNLKNEDTATYLCARDSYSGGFDYWGQGTIVTVSS
VL: DIQMTQSPASLSASVGETVTITCRASENFYSYLAWYQQKQGKSPQLLVYNAKTLAEGVPSRFSGSGSGTQFSLKINSLQPEDFGTYYCQHHYDIPLTFGAGTKLELKRTVAAPSVFIFPPDIVMTQSPSSLSVSAGEKVTLSCKSSQSLLISGDQKNYLAWYQQKPGQPPKLLIYGASTRDSGVPDRFTGSGSGADFTLTISSVQAEDLAVYYCQNDHSFPPTFGAGTKLELKR
notes: also called DVD723 (2322-903-LL)
Kd [3]: < 0.2 nM

B3: DVD730 (bispecific antibody)
VH: QVQLQQPGSELVRPGASVKLSCKASGYTFTSYWMHWVKQRPGQGLEWIGNIYPGTVNTNYDEKFKNKATLTVDTSSSTAYMLLSSLTSEDSAVYYCTRDYYGGGLNYWGQGTTLTVSSASTKGPEVQLVESGGGLVQPGGSLKLSCAASGFTFNNYYMSWVRQTPERRLEWVAYISSSGGSTYYSDSVRGRFTISRDTARNTLYLQMTSLKSEDTAMYYCARHFGDYSYFDYWGQGTTLTVSS
VL: SIVMTQTPKFLLVSAGDRVTITCKASQSVSNDVAWFQQKPGQSPKLLIYYASNRYAGVPDRFTGSGFGTDFTFTISTVQAEDLAVYFCHQDYSSPRTFGGGTKLEIKRTVAAPDIQMTQSPASLSASVGETVTITCRASENFYSYLAWYQQKQGKSPQLLVYNAKTLAEGVPSRFSGSGSGTQFSLKINSLQPEDFGTYYCQHHYDIPLTFGAGTKLELKR
notes: also called DVD730 (IL18-2322-SS)
Kd [2]: 0.6 nM

B4: AB090 (antibody, V domains shown)
VH: QVQLQQPGAELVRPGASVKLSCKASGYTFTSYWMNWVKQRPEQGLEWIGRIDPYDSETHYNQKFKDKAILTVDKSSSTAFVQLTSLTSEDSAVYYCVSDGYWGAGTTVTVSS
VL: DVVMTQTPLTLSVTTGQPASISCKSSQSLLDSDGKTYLNWLFQRPGESPKLLIYVVSKLESGVPDRFTGSGSGTDFTLKISRVEAEDLGVYYCLQATHFPWTFGGGTKLEIKR
notes: also called BNP 3-631-436
Kd [4]: 0.3 nM

B5: DVD721 (antibody)
VH: KIQLVQSGPELKKPGETVKISCKASGYTFTNYGMNWVKQAPGKGLKWMGWININTGEPTYAEEFKGRFAFSLETSATTAFLQINNLKNEDTATYLCARDSYSGGFDYWGQGTIVTVSSASTKGPSVFPLAPKIQLVQSGPELKKPGETVKISCKASGYTFTNYGMNWVKQAPGKGLKWMGWININTGEPTYAEEFKGRFAFSLETSATTAFLQINNLKNEDTATYLCARDSYSGGFDYWGQGTIVTVSS
VL: DIVMTQSPSSLSVSAGEKVTLSCKSSQSLLISGDQKNYLAWYQQKPGQPPKLLIYGASTRDSGVPDRFTGSGSGADFTLTISSVQAEDLAVYYCQNDHSFPPTFGAGTKLELKRTVAAPSVFIFPPDIVMTQSPSSLSVSAGEKVTLSCKSSQSLLISGDQKNYLAWYQQKPGQPPKLLIYGASTRDSGVPDRFTGSGSGADFTLTISSVQAEDLAVYYCQNDHSFPPTFGAGTKLELKR
notes: also called DVD721 (903-903-LL)
Kd [5]: < 0.3 nM

B6: DVD719 (antibody)
VH: EVQLVESGGGLVQPGGSLKLSCAASGFTFNNYYMSWVRQTPERRLEWVAYISSSGGSTYYSDSVRGRFTISRDTARNTLYLQMTSLKSEDTAMYYCARHFGDYSYFDYWGQGTTLTVSSASTKGPSVFPLAPEVQLVESGGGLVQPGGSLKLSCAASGFTFNNYYMSWVRQTPERRLEWVAYISSSGGSTYYSDSVRGRFTISRDTARNTLYLQMTSLKSEDTAMYYCARHFGDYSYFDYWGQGTTLTVSS
VL: DIQMTQSPASLSASVGETVTITCRASENFYSYLAWYQQKQGKSPQLLVYNAKTLAEGVPSRFSGSGSGTQFSLKINSLQPEDFGTYYCQHHYDIPLTFGAGTKLELKRTVAAPSVFIFPPDIQMTQSPASLSASVGETVTITCRASENFYSYLAWYQQKQGKSPQLLVYNAKTLAEGVPSRFSGSGSGTQFSLKINSLQPEDFGTYYCQHHYDIPLTFGAGTKLELKR
notes: also called DVD719 (2322-2322-LL)
Kd [5]: < 0.05 nM

B7: AB083 (antibody, V domains shown)
VH: KIQLVQSGPELKKPGETVKISCKASGYTFTNYGMNWVKQAPGKGLKWMGWININTGEPTYAEEFKGRFAFSLETSATTAFLQINNLKNEDTATYLCARDSYSGGFDYWGQGTIVTVSS
VL: DIVMTQSPSSLSVSAGEKVTLSCKSSQSLLISGDQKNYLAWYQQKPGQPPKLLIYGASTRDSGVPDRFTGSGSGADFTLTISSVQAEDLAVYYCQNDHSFPPTFGAGTKLELKR
notes: also called AB083 (903); Chimeric mAb 903
Kd [6]: 0.7 nM

B8: DVD738 (bispecific antibody)
VH: QIQLVQSGPELRKPGETVKISCKGSGYTFTHYGINWVKQTPRKDLKWMGWINTHTGEAYYADDFKGRFAFSLETSANTAYLQINNLNNGDMGTYFCTRSHRFGLDYWGQGTSVTVSSASTKGPSVFPLAPQVQLQQPGAELVRPGASVKLSCKASGYTFTSYWMNWVKQRPEQGLEWIGRIDPYDSETHYNQKFKDKAILTVDKSSSTAFVQLTSLTSEDSAVYYCVSDGYWGAGTTVTVSS
VL: DNVLTQSPPSLAVSLGQRATISCKANWPVDYNGDSYLNWYQQKPGQPPKFLIYAASNLESGIPARFSGSGSGTDFNLNIHPVEEEDAATYYCQQSNEDPFTFGSGTKLEIKRTVAAPSVFIFPPDVVMTQTPLTLSVTTGQPASISCKSSQSLLDSDGKTYLNWLFQRPGESPKLLIYVVSKLESGVPDRFTGSGSGTDFTLKISRVEAEDLGVYYCLQATHFPWTFGGGTKLEIKR
notes: also called DVD738H/DVD738L
Kd [7]: < 0.03 nM

B9: DVD720 (antibody)
VH: EVQLVESGGGLVQPGGSLKLSCAASGFTFNNYYMSWVRQTPERRLEWVAYISSSGGSTYYSDSVRGRFTISRDTARNTLYLQMTSLKSEDTAMYYCARHFGDYSYFDYWGQGTTLTVSSASTKGPEVQLVESGGGLVQPGGSLKLSCAASGFTFNNYYMSWVRQTPERRLEWVAYISSSGGSTYYSDSVRGRFTISRDTARNTLYLQMTSLKSEDTAMYYCARHFGDYSYFDYWGQGTTLTVSS
VL: DIQMTQSPASLSASVGETVTITCRASENFYSYLAWYQQKQGKSPQLLVYNAKTLAEGVPSRFSGSGSGTQFSLKINSLQPEDFGTYYCQHHYDIPLTFGAGTKLELKRTVAAPDIQMTQSPASLSASVGETVTITCRASENFYSYLAWYQQKQGKSPQLLVYNAKTLAEGVPSRFSGSGSGTQFSLKINSLQPEDFGTYYCQHHYDIPLTFGAGTKLELKR
notes: also called DVD720 (2322-2322-SS)
Kd [5]: < 0.07 nM

B10: DVD736 (bispecific antibody)
VH: QVQLQQPGAELVRPGASVKLSCKASGYTFTSYWMNWVKQRPEQGLEWIGRIDPYDSETHYNQKFKDKAILTVDKSSSTAFVQLTSLTSEDSAVYYCVSDGYWGAGTTVTVSSASTKGPSVFPLAPQIQLVQSGPELRKPGETVKISCKGSGYTFTHYGINWVKQTPRKDLKWMGWINTHTGEAYYADDFKGRFAFSLETSANTAYLQINNLNNGDMGTYFCTRSHRFGLDYWGQGTSVTVSS
VL: DVVMTQTPLTLSVTTGQPASISCKSSQSLLDSDGKTYLNWLFQRPGESPKLLIYVVSKLESGVPDRFTGSGSGTDFTLKISRVEAEDLGVYYCLQATHFPWTFGGGTKLEIKRTVAAPSVFIFPPDNVLTQSPPSLAVSLGQRATISCKANWPVDYNGDSYLNWYQQKPGQPPKFLIYAASNLESGIPARFSGSGSGTDFNLNIHPVEEEDAATYYCQQSNEDPFTFGSGTKLEIKR
notes: also called DVD736H/DVD736L
Kd [7]: < 0.03 nM

B11: AB082 (antibody, V domains shown)
VH: EVQLVESGGGLVQPGGSLKLSCAASGFTFNNYYMSWVRQTPERRLEWVAYISSSGGSTYYSDSVRGRFTISRDTARNTLYLQMTSLKSEDTAMYYCARHFGDYSYFDYWGQGTTLTVSS
VL: DIQMTQSPASLSASVGETVTITCRASENFYSYLAWYQQKQGKSPQLLVYNAKTLAEGVPSRFSGSGSGTQFSLKINSLQPEDFGTYYCQHHYDIPLTFGAGTKLELKR
notes: also called AB082 (2322); Chimeric mAb 2322
Kd [6]: < 0.05 nM
